Reference: the Human Domainome abundance scans (Beltran et al. 2025)

B1: Peroxisome proliferator-activated receptor delta, residues 71 to 145; numbered along this chain, Q03181 (parent)
chain: NMECRVCGDKASGFHYGVHACEGCKGFFRRTIRMKLEYEKCERSCKIQKKNRNKCQYCRFQKCLALGMSHNAIRF
B2: Arginine-glutamic acid dipeptide repeats protein, residues 502 to 543; numbered along this chain, Q9P2R6 (parent)
chain: LKGYACRHCFTTTSKDWHHGGRENILLCTDCRIHFKKYGELP

Variants of: B1
Assay: abundance fitness (aPCA) (normalised: wild type 0, dead -1); higher = more abundant; growth selection in yeast, the domain comes from the species named
Details: Homo sapiens

Abundance fitness: each site, then its substitutions
F60: Q -1.04, W -0.003, T -0.549, R -0.798, K -0.742, I -0.399, C -0.84, D -0.633, L -0.027, E -1.03, Y -0.223, A -0.941, V -0.622, M -0.073, H -0.528, P -0.802, S -0.557
L66: N -0.014, M 0.109, E 0.067, I 0.106, D -0.521, Y -0.345, P -0.681, T 0.086, F -0.438, A -0.077, R -0.315, G -0.419, V 0.113, C -0.15, H -0.436, Q 0.014, W -0.629, S 0.03, K -0.018
A72: S 0.052, W -0.353, R -0.257, I -0.297, G 0.059, T -0.248, F -0.27, Q 0.008, K -0.175, E 0.122, Y -0.156, C -0.126, D 0.132, N -0.092, L -0.144, H 0.047, M 0.019
M68: E -0.794, H -0.771, I -0.703, G -0.822, C -0.9, T -0.769, R -0.698, L -0.725, N -0.81, S -0.746, W -0.148, F -0.529, P -0.64, V -0.652, Q -0.668, K -0.769, Y -0.718, D -0.696
S69: T -0.013, C -0.138, R -0.162, V -0.057, E 0.022, N -0.118, Y -0.213, K 0.023, P -0.461, W -0.191, M 0.029, A -0.007, H -0.045, G -0.001, Q 0.088, L -0.053, D 0.147, F -0.268
K62: G -0.661, E -0.447, Y -0.441, H -0.522, V -0.569, L -0.318, W -0.646, R -0.193, C -0.543, M -0.328, I -0.245, F -0.418, T -0.234, A -0.056, P -0.824, Q -0.293, D -0.671, S -0.645
Q61: I -0.254, P -0.666, D -0.751, T -0.304, C -0.615, K -0.098, H -0.248, F -0.909, E -0.037, S -0.248, M -0.061, R -0.296, W -0.699, V -0.243, L -0.439, Y -0.227, G -0.639, N -0.359, A -0.069
I73: A 0.202, D 0.119, S 0.071, R -0.117, F -0.094, Y -0.097, M 0.137, Q 0.078, K -0.05, G 0.136, W -0.152, N 0.039, L 0.087, H -0.017, C 0.047, P 0.215, E 0.288, T 0.184
R59: S -0.928, I -0.837, H -0.005, W 0.204, D -0.361, N -0.704, M -0.023, P -0.903, E -0.933, L 0.098, T -0.218, Y 0.107, K -0.199, G -0.867, V -0.472, F -0.042
R74: S 0.093, V -0.013, F 0.049, Y -0.081, I 0.001, A 0.079, C -0.141, N 0.011, E 0.259, G 0.224, P 0.151, T 0.071, K 0.067, W -0.084, Q 0.284, M 0.004
L64: G -0.805, E -0.397, V -0.022, R -0.391, M -0.188, Q -0.162, W -0.755, S -0.648, T -0.288, C -0.16, P -0.838, H -0.274, N -0.906, A -0.38, D -0.83, F -0.828, I -0.037
A65: T -0.073, Q -0.001, I -0.162, V -0.075, E -0.003, N -0.026, Y -0.301, W -0.231, L -0.098, K -0.073, P -0.819, D 0.092, C -0.295, S -0.011, R -0.086, F -0.19, G -0.185, H -0.288
H70: T 0.157, P 0.185, K 0.019, M 0.09, R 0.063, F 0.039, C -0.206, D 0.394, Q 0.108, W -0.177, N 0.013, V 0.099, G 0.048, I 0.198, A 0.02, S 0.015, Y -0.162, E 0.172
N71: L -0.412, R -0.242, F -0.477, D 0.103, E 0.142, A -0.036, K -0.127, I -0.361, G -0.038, Q 0.034, M -0.394, Y -0.337, P 0.095, W -0.362, H -0.173, V -0.31, C -0.246
F75: Y 0.026, V 0.015, C 0.193, I -0.023, R 0.066, T 0.171, K 0.238, D 0.285, G 0.218, M -0.192, W 0.176, N -0.021, P 0.152, E 0.088, S 0.216, L 0.128, Q 0.301, A 0.15
G67: N -0.36, L -0.808, V -0.673, T -0.687, R -0.584, C -0.469, W -0.666, K -0.407, F -0.459, Y -0.854, A -0.411, H -0.714, M -0.497, I -0.74, S -0.694, E -0.525, P -0.562, Q -0.604, D -0.441
C63: D -0.635, Y -0.232, K -0.791, M -0.063, L -0.547, A -0.585, R -0.508, I -0.669, F -0.403, T -0.85, E -0.689, V -0.912, Q -0.698, S -0.905, W -0.88, G -0.591

Variants of: B2
Assay: as above
Details: Homo sapiens

Abundance fitness: each site, then its substitutions
G3: A -0.047, I -0.246, F -0.247, E -0.2, C -0.226, H -0.058
K2: A -0.116, Y -0.477, E -0.038, Q -0.107, I -0.241, W -0.401, D -0.004, L -0.196, H -0.374, P -0.357, G -0.12, S -0.049, T -0.367, F -0.078, V -0.023, M -0.09, N -0.046, R -0.153
L1: I 0.149, Q -0.245, V 0.054, R -0.083, S -0.003, M 0.076, W -0.187, A 0.158, F 0.014, T 0.066, G 0.043
